Assay results reported in the supplement of paper PMC10126150.
± gives the standard deviation of the averaged measurements.

Test system: ATP
Test: switch fluorescence ratio, 500 uM ATP over buffer (Cy3 cluster intensity, sum of 5 cycles each) (fold (ratio)); higher = stronger signal-on switching upon ATP binding; sequences stand for … in TCGTCGGCAGCGTCAGATGTGTATAAGAGACAGTTTTTTTTTTTTTTTTTTTTTTTTT…TC
Details: aptamer strand: ATP DNA aptamer (quencher-CACCTGGGGGAGTATTGCGGAGGAAGG + anchor), 100 nM annealed; ATP concentration: 500 uM
In short: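 Clusters with intensities outside 100-1000 RFU were excluded. The remaining Cy3-labelled switching-strand clusters on a modified Illumina MiSeq flow-cell had been annealed to 100 nM quencher-labelled ATP aptamer and imaged in selection buffer, then after 15 min with 500 uM ATP at 22 °C, for five cycles separated by NaOH stripping and re-annealing. The fluorescence ratio, averaged per switch-domain sequence, is each cluster's summed target-cycle Cy3 intensity over its summed buffer-cycle Cy3 intensity.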
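Also: ATP exposure 15 min at 22 °C before imaging.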

Sequence | switch fluorescence ratio
CGCTTATCAT | 0.98 ± 0.03
CGCTTCATTA | 1.01 ± 0.063
CGCTTGGCTC | 1.078 ± 0.0093
CGCTTTGACT | 1.08 ± 0.021
CGGAAAAAGT | 0.97 ± 0.013
CGGAAAAATC | 1.53 ± 0.76
CGGAAAAATT | 1.04 ± 0.12
CGGAAACTTT | 1.0088 ± 0.00067
CGGAAAGGGA | 1.01 ± 0.022
CGGAAATGAA | 0.9824 ± 0.0028
CGGAAGCTAA | 1.46 ± 0.16
CGGAAGGCTA | 1.025 ± 0.0069
CGGAAGGGGA | 1.05 ± 0.027
CGGAAGTTCT | 0.993 ± 0.049
CGGAATAGCT | 1.22 ± 0.024
CGGAATTTC | 1.11 ± 0.05
CGGACACGAA | 0.981 ± 0.022
CGGACACGTT | 0.983 ± 0.052
CGGACCAGCG | 0.965 ± 0.0086
CGGACGAGAG | 0.998 ± 0.022
CGGACGTGAC | 2.79 ± 0.2
CGGACTAGGT | 1.02 ± 0.011
CGGACTCATT | 1.09 ± 0.15

Sequence | switch fluorescence ratio
CGGACTGGGC | 0.959 ± 0.051
CGGAGAAAGG | 1.03 ± 0.069
CGGAGAAGTT | 1 ± 0.015
CGGAGATCGG | 0.999 ± 0.013
CGGAGGAAGG | 1.044 ± 0.0072
CGGAGGCTTG | 1.01 ± 0.061
CGGAGGGTGT | 0.997 ± 0.033
CGGAGGTAGC | 1.03 ± 0.058
CGGAGTCGCC | 1.01 ± 0.012
CGGAGTTAAG | 1.07 ± 0.044
CGGAGTTACA | 1.068 ± 0.0072
CGGAGTTTTT | 0.9971 ± 0.0058
CGGATACGGT | 0.997 ± 0.04
CGGATAGTGC | 1.07 ± 0.11
CGGATCGGAT | 0.976 ± 0.04
CGGATGATAG | 1 ± 0.059
CGGATGGAGG | 0.988 ± 0.042
CGGATGGCCT | 1.03 ± 0.019
CGGATGTTCA | 1.001 ± 0.0059
CGGATTAGAG | 0.9641 ± 0.0032
CGGATTGAAT | 1 ± 0.072
CGGATTGTGT | 1.018 ± 0.0055
CGGATTTAAG | 0.9979 ± 0.0066

Sequence | switch fluorescence ratio
CGGATTTAGA | 0.987 ± 0.043
CGGCAATGGT | 1.87 ± 1.1
CGGCACCCTT | 0.997 ± 0.017
CGGCAGCGGG | 1.03 ± 0.013
CGGCAGCTGA | 1 ± 0.011
CGGCAGGGTG | 1.05 ± 0.0092
CGGCAGGTAA | 1.05 ± 0.03
CGGCATGGGT | 0.989 ± 0.018
CGGCCAGGGG | 1.5 ± 0.09
CGGCCATTTG | 0.993 ± 0.059
CGGCCCCCGT | 1.4 ± 0.46
CGGCCTGTGC | 1.03 ± 0.087
CGGCGATGTT | 0.9867 ± 0.0076
CGGCGATTTA | 1.003 ± 0.009
CGGCGCCCA | 0.997 ± 0.01
CGGCGCCTGT | 1.01 ± 0.05
CGGCGGGCGA | 1.03 ± 0.02
CGGCGGGGGA | 1.04 ± 0.043
CGGCGTACAT | 1.04 ± 0.02
CGGCGTAGTC | 1.02 ± 0.035
CGGCGTGGGG | 1.03 ± 0.027
CGGCTAACAA | 1.02 ± 0.013
CGGCTCAACT | 1.01 ± 0.022

Sequence | switch fluorescence ratio
CGGCTGGGTA | 1.014 ± 0.0054
CGGCTGTGCT | 1 ± 0.022
CGGCTTAAGT | 1.01 ± 0.035
CGGCTTACAC | 1.12 ± 0.017
CGGCTTAGTA | 0.988 ± 0.062
CGGCTTATTC | 1.04 ± 0.015
CGGCTTGATA | 1.01 ± 0.033
CGGCTTGGGG | 1 ± 0.015
CGGCTTTTGG | 0.9617 ± 0.0084
CGGGAAAGTC | 0.996 ± 0.027
CGGGAAGAGC | 1.033 ± 0.0043
CGGGAATCTC | 1.085 ± 0.0081
CGGGAATTTC | 1.04 ± 0.027
CGGGACATGA | 1.01 ± 0.012
CGGGACCGGC | 1.04 ± 0.13
CGGGACTCTT | 0.995 ± 0.017
CGGGACTGCT | 0.9825 ± 0.0052
CGGGAGAGTA | 1.54 ± 0.82
CGGGAGCAGG | 1.09 ± 0.014
CGGGAGGACT | 0.989 ± 0.057
CGGGAGGTCG | 1.05 ± 0.082
CGGGAGGTGT | 1.029 ± 0.0037
CGGGAGTAGG | 1.04 ± 0.041

Sequence | switch fluorescence ratio
CGGGAGTTAA | 1.01 ± 0.015
CGGGAGTTGT | 0.99 ± 0.042
CGGGATAGAT | 1 ± 0.039
CGGGATATAA | 0.989 ± 0.022
CGGGATATCG | 1.01 ± 0.029
CGGGATGCGC | 1.04 ± 0.066
CGGGATGTGC | 0.99328 ± 6e-06
CGGGATTAGT | 0.99 ± 0.031
CGGGATTATG | 1.01 ± 0.052
CGGGATTTAA | 1.03 ± 0.054
CGGGCAGCGG | 0.955 ± 0.06
CGGGCCACGA | 1.04 ± 0.026
CGGGCCCCGG | 1.74 ± 0.35
CGGGCCTGAA | 0.999 ± 0.041
CGGGCGAATA | 1 ± 0.017
CGGGCGAGGG | 0.959 ± 0.011
CGGGCGCTGG | 0.995 ± 0.018
CGGGCGGCAG | 1.04 ± 0.027
CGGGCGGGGC | 1.04 ± 0.028
CGGGCGGGTA | 1.034 ± 0.0088
CGGGCGGTCG | 0.975 ± 0.068
CGGGCGTGCC | 0.966 ± 0.014
CGGGCTAAGG | 0.986 ± 0.018

Sequence | switch fluorescence ratio
CGGGCTGGCA | 1.004 ± 0.01
CGGGCTGGGT | 0.987 ± 0.057
CGGGCTTCGA | 0.993 ± 0.013
CGGGGAAAAA | 1.06 ± 0.094
CGGGGAAGCG | 1.01 ± 0.021
CGGGGAATCA | 0.991 ± 0.038
CGGGGAGAGC | 1.03 ± 0.039
CGGGGAGAGG | 0.998 ± 0.036
CGGGGAGCGT | 1 ± 0.034
CGGGGAGCTG | 1.02 ± 0.036
CGGGGAGGGG | 0.985 ± 0.028
CGGGGAGTAA | 1.01 ± 0.012
CGGGGAGTTT | 0.978 ± 0.05
CGGGGATATT | 1.11 ± 0.23
CGGGGATGAA | 1.01 ± 0.063
CGGGGCAAAT | 1.04 ± 0.028
CGGGGCACGT | 1.16 ± 0.23
CGGGGCAGCT | 1.1 ± 0.11
CGGGGCATTG | 1.013 ± 0.0046
CGGGGCGAGG | 1 ± 0.017
CGGGGCTTTG | 0.982 ± 0.025
CGGGGGAACG | 1.01 ± 0.048
CGGGGGAAGG | 0.979 ± 0.026

Sequence | switch fluorescence ratio
CGGGGGAGGC | 0.96 ± 0.018
CGGGGGAGTC | 1.02 ± 0.027
CGGGGGATCA | 1.01 ± 0.049
CGGGGGATTT | 1.01 ± 0.014
CGGGGGCACC | 1.07 ± 0.057
CGGGGGCGGA | 1.04 ± 0.052
CGGGGGCTCG | 0.989 ± 0.069
CGGGGGCTGT | 0.964 ± 0.0037
CGGGGGGAGG | 1.01 ± 0.035
CGGGGGGATA | 1.07 ± 0.15
CGGGGGGCCC | 0.97 ± 0.024
CGGGGGGCCG | 0.995 ± 0.01
CGGGGGGGC | 1.001 ± 0.01
CGGGGGGGTG | 1.03 ± 0.096
CGGGGGGTGT | 1.01 ± 0.023
CGGGGGGTTG | 0.984 ± 0.033
CGGGGGTAAG | 0.991 ± 0.027
CGGGGGTCCT | 0.986 ± 0.015
CGGGGGTGGC | 0.984 ± 0.029
